We go through nine molecules from patent US20220112288A1 (published 2022).

Positions count from the first letter of the chain named. Bounds are passed on as bounds.

B1: 75110_08G08A (antibody, V domains shown)
VH: QVQLQESGPGLVKPSETLSLTCSVSGGSISTYYWSWIRQPAGKGLEWIGRICTTENTNYNPSLKSRVTMSIDSSKNQFSLKLSSVTAADTAVYYCARDLERLNYYGMDVWGQGATVTVSS
VL: DIQMTQSPSSLSASVGDRVTITCQASQDISNYLNWYQQKPGIAPKLLIYDASNLETGVPSRFSGSGSGTDFTFTISSLQPEDIATYYCQQYDSLPITFGQGTRLEIK
notes: Non-clonal AlivaMab Mouse Kappa hybridoma supernatant, captured by anti-mouse IgG Fc (human V regions, mouse Fc)
B2: 75110_14G10A (antibody, V domains shown)
VH: EVQLVESGGGLVKPGGSLRLSCAASGFTFSSYSMNWVRQAPGKGLEWVSFISSSSSYIYYADSVKGRFTISRDNAKNSLYLQMNSLRAEDTAVYYCARERGDDYGDYEGAFDIWGQGTMVTVSS
VL: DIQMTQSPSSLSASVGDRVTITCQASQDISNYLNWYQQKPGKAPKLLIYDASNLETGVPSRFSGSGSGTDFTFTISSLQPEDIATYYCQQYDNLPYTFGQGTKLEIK
notes: as for B1
B3: CD8B240 (antibody, human IgG1, kappa)
heavy: not shown
light: DIVMTQSPATLSVTPGDRVSLSCRASQSISDFLHWYQQKSHESPRLLIKYASQSISGIPSRFSGSGSGSDFTLTINSVEPEDVGVYYCQNGHSFPYTFGSGTKLEIKRTVAAPSVFIFPPSDEQLKSGTASVVCLLNNFYPREAKVQWKVDNALQSGNSQESVTEQDSKDSTYSLSSTLTLSKADYEKHKVYACEVTHQGLSSPVTKSFNRGEC
notes: Full-length human IgG1, kappa; V regions recovered from mouse hybridoma
B4: CD8B191 (antibody, human IgG1, kappa)
heavy: not shown
light: B3 light with M4L
notes: as for B3
B5: CD8B364 (antibody, human IgG1, kappa, V domains shown)
VH: QVQLQQPGAELVKPGASVKLSCKASGYTFTSYWMHWVNRRPGQGLEWIGEINPSNGDSYYNEKFKRKATLTVDISSSTAYMQLSSLTSEDSAVYYCTRSMYYDGRAGAYWGQGTTVTVSS
VL: DIVLTQSPASLSVATGEKVTIRCITSTDIDDDMNWYQQKPGEPPKLLISEGNTLRPGVPSRFSSSGYGTDFVFTIENTLSEDVADYYCLQSDNMPLTFGAGTKLELKR
notes: as for B3
B6: CD8B213 (antibody, human IgG1, kappa, V domains shown)
VH: EVQLQQSGPELVKPGDSMKMSCKASGYIFTDYYMDWVKQSHGKSLEWIGYIYPNNGITSYNQKFKGRATLTIDKSSSTAYMELHSLTSEDSAVYYCARSIYYDHGGGFPYWGQGTSVTVSS
VL: DIVLTQSQKFMSTSVGDRVSVTCKASQNVDKYVAWYQQKPGQSPKALIYSASYRYSGVPDRFTGSGSGTDFTLTISNVQSEDLAEYFCQQYNTYPSFGSGTKLEMKR
notes: as for B3
B7: CD8B361 (antibody, human IgG1, kappa, V domains shown)
VH: EVQLQQSGPELVKPGNSVKMSCKASGYTFTDYYMDWVKQSHGTSLEWIGYIYPNNGDTRYNQKFKDKATLTVDKSSSTAYMELHSLTSEDSAVFYCARSIYYDHGGGFPYWGQGTLVTVSA
VL: B6 VL with L4M, D30G, K31T, S76N, F87L, T93S, S96T, S99G, K102R, M105I
notes: Full-length human IgG1, kappa; V regions recovered from mouse hybridoma; also called CD8B36I
B8: CD8B200 (antibody, human IgG1, kappa, V domains shown)
VH: EVQLQQSGAELVKPGASVKLSCKASGYTFTNYWIHWVKQRPGQGLEWIGNIDPSDSETHYNQKFKDKATLTVDKSSSTAYMQLISLTSEDSAVYYCASGLTGTGYYWGQGTTLTVSS
VL: DIQMTQTTSSLSASLGDRVTITCRASQDISPYLNWYQQKPEGTIKLLIYYTSKLHSGVPSRFSGSGSGTDYSLTISNLEQEDIATYFCQQDNTLPYTFGSGTKLELKR
notes: as for B3
B9: CD8B270 (antibody, human IgG1, kappa, V domains shown)
VH: B8 VH with E1Q, S7P, K19M, I34M, I84S
VL: B8 VL with S30R, Y50F
notes: as for B3

T2 sequence (P01732 22-235, chain 1 of 2): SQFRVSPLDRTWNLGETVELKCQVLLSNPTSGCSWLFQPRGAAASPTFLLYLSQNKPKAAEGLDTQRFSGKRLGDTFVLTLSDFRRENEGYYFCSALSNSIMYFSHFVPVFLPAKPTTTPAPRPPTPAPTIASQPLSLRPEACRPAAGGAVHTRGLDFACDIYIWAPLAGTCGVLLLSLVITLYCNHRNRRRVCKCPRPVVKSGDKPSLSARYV
T2 sequence (P10966 22-210, chain 2 of 2): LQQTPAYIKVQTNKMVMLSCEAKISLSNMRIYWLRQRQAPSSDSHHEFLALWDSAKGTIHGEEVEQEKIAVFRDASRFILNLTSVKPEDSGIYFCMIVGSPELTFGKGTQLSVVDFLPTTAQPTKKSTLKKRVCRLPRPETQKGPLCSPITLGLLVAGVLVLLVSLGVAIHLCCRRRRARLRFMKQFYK

The first assay has as its target T1, Recombinant human CD4 (R&D Systems, Cat. 10327-CD) (human, UniProt P01730 26-390, limits assumed).
T1 construct: Bought soluble recombinant protein used as analyte at 100 nM; also called huCD4
Put plainly: BLI (Octet Red384), non-clonal supernatant on AMC sensor, 100 nM human CD4, 1:1 local fit.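 Further: hybridoma antibodies captured from supernatant, single CD4 concentration as analyte, association and dissociation phases fitted together, giving single-point kinetic estimates per supernatant.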 A general note: BLI is a label-free optical method that tracks binding on a fibre tip over time.
As to B1, the Kd is 3.4 nM, the off-rate constant (koff) amounted to 0.00096 s⁻¹ and the kon stood at 280000 M⁻¹ s⁻¹.
On the same counts, the results for B2 are below 0.001 nM, below 1e-07 s⁻¹ and 78800 M⁻¹ s⁻¹.

A further assay deals with T1, Recombinant human CD4 (R&D Systems, …). Put plainly: BLI (Octet Red384), non-clonal supernatant on AMC sensor, 100 nM human CD4.
Turning to B1, the Response worked out at 0.13.
Still for that read-out and setting: as for B2, the figure is 0.0363.

Another assay concerns the target T2, human CD8 on human pan T cells (CD4-negative population) (human, UniProt P01732 22-235; P10966 22-210).
T2 construct: whole, on cells; Endogenous CD8 on primary human pan T cells, read in the CD4-negative gate; also called CD8α/β
Nature of the assay: flow cytometry, 20 nM antibody on human pan T cells, A647 anti-human IgG Fc; geomean ratio in CD4-negative population.
In the case of B3, the “Cell Binding to Human PanT Signal/Background (of CD4 negative population)” value stood at 1310.
On the same count and under the same terms, as for B4, the figure is 2440.
Still for that read-out and setting: as for B5, the figure is 1560; as for B6, 827; as for B7, 1050.
The same measure, in the same setting: as for B8, the figure is 1990.
Turning to B9, the “Cell Binding to Human PanT Signal/Background (of CD4 negative population)” value stood at 2500.

One may read the Kd as the equilibrium constant for the complex coming apart. One may read the koff as a measure of how fast the partners let go of each other. For orientation: kon means the second-order rate constant of association.
